Assay results reported in US20230137139A1, “BIOSYNTHESIS OF CANNABINOIDS AND C[…]” (priority 2020, published 2023).
Substitutions are numbered along the chain they refer to.

B1: t865748 (protein)
chain: MGNTTSIAGRDCLISALGGNSALAVFPNELLWTADVHEFNLNLPVTPAAITYPETAAQIAGVVKCASDYDYKVQARSGGHSFGNYGLGGADGAVVVDMKHFTQFSMDDETYEAVIGPGTTLNDVDIELYNNGKRAMAHGVCPTIKTGGHFTIGGLGPTARQWGLALDHVEEVEVVLANSSIVRASNTQNQDVFFAVKGAAANFGIVTEFKVRTEPAPGLAVQYSYTFNLGSTAEKAQFVKDWQSFISAKNLTRQFYNNMVIFDGDIILEGLFFGSKEQYDALGLEDHFAPKNPGNILVLTDWLGMVGHALEDTILKLVGNTPTWFYAKSLGFRQDTLIPSAGIDEFFEYIANHTAGTPAWFVTLSLEGGAINDVAEDATAYAHRDVLFWVQLFMVNPVGPISDTTYEFTDGLYDVLARAVPESVGHAYLGCPDPRMEDAQQKYWRTNLPRLQELKEELDPKNTFHHPQGVMPA
modifications: expressed in S. cerevisiae strain
B2: t865758 (protein)
chain: B1 chain with F39Y, E456A
modifications: expressed in S. cerevisiae strain
B3: t865795 (protein)
chain: B1 chain with F39Y, F262I
modifications: expressed in S. cerevisiae strain
B4: t878468 (protein)
chain: B1 chain with F39Y, A57E
modifications: expressed in S. cerevisiae strain
B5: t865718 (protein)
chain: B1 chain with F39Y, P472R
B6: t865732 (protein)
chain: B1 chain with F39Y, H426Y
B7: t865742 (protein)
chain: B1 chain with F39Y, E112T
B8: t878466 (protein)
chain: B1 chain with F39Y, Q161K
modifications: expressed in S. cerevisiae strain
B9: t865724 (protein)
chain: B1 chain with F39Y, T102N
B10: t865730 (protein)
chain: B1 chain with F39Y, N202G
B11: t865735 (protein)
chain: B1 chain with F39Y, T446P
B12: t865745 (protein)
chain: B1 chain with F39Y, V63I
modifications: expressed in S. cerevisiae strain
B13: t865747 (protein)
chain: B1 chain with F39Y, V398A
modifications: expressed in S. cerevisiae strain
B14: t865755 (protein)
chain: B1 chain with F39Y, L392H
modifications: expressed in S. cerevisiae strain

Experiments:
[1] = tested on: CBCVA, THCVA, and CBDVA production; assay: In vivo TS activity assay, Example 2 protein engineering of A. niger CBCAS, cultures fed divaric acid; assay type: cell-based, S. cerevisiae; details: for Mean CBCVA / Mean CBDVA / Mean THCVA: S. cerevisiae strains expressing A. niger CBCAS mutants; for Mean CBCVA / Mean CBDVA / Mean THCVA / average CBCVA titer compared with the A. niger positive control: secondary screen; for Mean CBCVA / Mean CBDVA / Mean THCVA / % CBCVA / % CBDVA / % THCVA: fed divaric acid; for % CBCVA / % CBDVA / % THCVA: share of terminal cannabinoid product profile
Outline: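 S. cerevisiae expressing A. niger CBCAS point mutants (N-terminal MFalpha2, C-terminal HDEL signal peptides) grown 2 days at 30 °C in YEP+4% dextrose, then 4 days at 20 °C in YEP+4% galactose with 1 mM divaric acid plus daily 2% galactose and 1 mM divaric acid spikes, then 2 days with 100 mM sodium citrate pH 5.5. Methanol extracts analysed by LC-MS; quadruplicate.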

[2] = tested on: CBCA, THCA, and CBDA production; assay: In vivo TS activity assay, Example 2 protein engineering of A. niger CBCAS, cultures fed olivetolic acid; assay type: cell-based, S. cerevisiae; details: for Mean CBCA / Mean CBDA / Mean THCA: secondary screen, olivetolic acid (Table 8); for % CBCA / % CBDA / % THCA: share of terminal cannabinoid product profile
Outline: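 S. cerevisiae expressing A. niger CBCAS mutants (MFalpha2/HDEL-tagged) grown 2 days at 30 °C in YEP+4% dextrose, then 4 days at 20 °C in YEP+4% galactose with 1 mM olivetolic acid, spiked every 24 h with 2% galactose and 1 mM olivetolic acid. 100 mM citrate pH 5.5 added, methanol-extracted; CBCA, THCA, CBDA quantified by LC-MS.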

Molecule | Mean CBCVA [1] [µg/L] | Mean CBDVA [1] [µg/L] | Mean THCVA [1] [µg/L] | average CBCVA titer compared with the A. niger positive control [1] | % CBCVA [1] [%] | % CBDVA [1] [%] | % THCVA [1] [%] | Mean CBCA [2] [µg/L] | Mean CBDA [2] [µg/L] | Mean THCA [2] [µg/L] | % CBCA [2] [%] | % CBDA [2] [%] | % THCA [2] [%]
B1 | 3759.89 | 0.00 | 1591.63 | higher | 70.26 | 0.00 | 29.74 | 21260.42 | 6161.32 | 1575.92 | 73.32 | 21.25 | 5.43
B2 | 3465.87 | 0.00 | 1548.62 |  | 69.12 | 0.00 | 30.88 | 26316.76 | 6998.62 | 1712.53 | 75.13 | 19.98 | 4.89
B3 | 1897.16 | 0.00 | 1181.24 |  | 61.63 | 0.00 | 38.37 | 24874.10 | 7028.82 | 1807.99 | 73.79 | 20.85 | 5.36
B4 | 2954.90 | 0.00 | 1628.92 |  | 64.46 | 0.00 | 35.54 | 26823.18 | 8556.40 | 1922.88 | 71.91 | 22.94 | 5.15
B5 | 5888.44 | 0.00 | 2516.89 | higher | 70.06 | 0.00 | 29.94 | 28669.67 | 7340.65 | 1640.20 | 76.15 | 19.50 | 4.36
B6 | 4734.85 | 0.00 | 2408.74 | higher | 66.28 | 0.00 | 33.72 | 22672.81 | 6720.79 | 1523.15 | 73.34 | 21.74 | 4.93
B7 | 2864.87 | 0.00 | 1514.38 |  | 65.42 | 0.00 | 34.58 | 31427.04 | 9022.22 | 2036.13 | 73.97 | 21.24 | 4.79
B8 | 2985.03 | 0.00 | 1623.40 |  | 64.77 | 0.00 | 35.23 | 23882.09 | 8030.74 | 1649.00 | 71.16 | 23.93 | 4.91
B9 | 2190.11 | 0.00 | 1153.25 |  | 65.51 | 0.00 | 34.49 | 30758.44 | 7663.56 | 2146.00 | 75.82 | 18.89 | 5.29
B10 | 3406.05 | 0.00 | 1922.88 |  | 63.92 | 0.00 | 36.08 | 27874.45 | 8385.38 | 1771.94 | 73.29 | 22.05 | 4.66
B11 | 2900.35 | 0.00 | 1459.81 |  | 66.52 | 0.00 | 33.48 | 27519.94 | 7436.20 | 1783.72 | 74.90 | 20.24 | 4.85
B12 | 7068.26 | 0.00 | 2991.05 | higher | 70.27 | 0.00 | 29.73 | 27923.31 | 7360.14 | 1963.25 | 74.97 | 19.76 | 5.27
B13 | 5571.51 | 0.00 | 2154.32 | higher | 72.12 | 0.00 | 27.88 | 18021.77 | 4783.24 | 1188.04 | 75.11 | 19.94 | 4.95
B14 | 3729.91 | 0.00 | 1768.56 | higher | 67.84 | 0.00 | 32.16 | 19432.21 | 4507.57 | 1001.22 | 77.91 | 18.07 | 4.01
